Test results reported in patent US20170152308A1 (Biogen, published 2017).
Where two headings read alike, the source gives them in different places.

T1: His-huTDP-43 domain I (amino acid residues 2-106) (human)
T1 construct: Amino terminal His-tagged fragment, E. coli; also called N-terminal domain
T1 chain: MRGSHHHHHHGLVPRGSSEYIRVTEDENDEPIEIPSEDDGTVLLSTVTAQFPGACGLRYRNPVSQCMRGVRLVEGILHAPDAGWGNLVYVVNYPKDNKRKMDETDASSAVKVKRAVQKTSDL

T2: His-huTDP-43 domain II (amino acid residues 99-204) (human)
T2 construct: Amino terminal His-tagged fragment, E. coli
T2 chain: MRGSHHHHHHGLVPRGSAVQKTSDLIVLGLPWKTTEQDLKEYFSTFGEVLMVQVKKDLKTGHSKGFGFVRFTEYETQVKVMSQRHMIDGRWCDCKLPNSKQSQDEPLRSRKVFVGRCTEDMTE

T3: His-huTDP-43 domain III (amino acid residues 183-273) (human)
T3 construct: Amino terminal His-tagged fragment, E. coli
T3 chain: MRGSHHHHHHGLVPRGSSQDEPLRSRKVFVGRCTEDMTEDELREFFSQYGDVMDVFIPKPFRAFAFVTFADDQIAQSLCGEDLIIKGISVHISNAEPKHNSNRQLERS


Key:
[1] = target: T4, recombinant full-length His-tagged human TDP-43 (2-414) (human, UniProt Q13148 2-414); experiment: direct ELISA, coated antigen
T4 construct: Amino terminal His tag, made in E. coli, purified in 8 M urea; also called full length TDP-43; full-length TDP-43
Method: (§1) The half maximal effective concentration (EC₅₀) of the human-derived TDP-43-specific antibodies for human TDP-43 and their target target-specificity was determined substantially as described in Example 2 above. Briefly, 96 well microplates (Corning) were coated with recombinant full length TDP-43 (Biogen Idec, USA), Escherichia coli extract and BSA (Sigma, Buchs, Switzerland), diluted to a concentration of 5 μg/ml in carbonate ELISA coating buffer (pH 9.6) overnight at 4° C. […] Non-specific binding sites were blocked for 1 hr. at room temperature with PBS containing 2% BSA (Sigma, Buchs, Switzerland). Human TDP-43-specific antibodies were diluted to the indicated concentrations and incubated 1 hr. at room temperature. Binding was determined using a donkey anti-human IgGγ-specific secondary antibody conjugated with HRP (Jackson ImmunoResearch, USA), followed by measurement of HRP activity in a standard colorimetric assay. EC₅₀ values were estimated by a non-linear regression using GraphPad Prism software (San Diego, USA).

[2] = target: T5, 6xHis-SUMO-TDP-43 (1-414), properly folded full length (human, UniProt Q13148 1-414); experiment: capture ELISA, antigen held by anti-6xHis antibody
T5 construct: Purified with KSCN and arginine, monomeric; captured on the plate by an anti-6xHis antibody; also called folded full-length TDP-43; 6xHis/SUMO tagged full length TDP-43; not shown: N-terminal 6xHis and SUMO tags from a modified pET19-b vector
Method: (§2) Non-specific binding sites were blocked for 1 hr at RT with PBS containing 1% BSA (Sigma) and 0.05% Tween-20 (Fisher Scientific). 6×His-SUMO-TDP43 proteins at a concentration of 1.7 μM were allowed to bind to antibody-coated plates for 1 hr at RT in PBS buffer containing 1% BSA, 300 mM arginine and 0.1% PEG 5000, pH 7.5. Plates were incubated for 1 hr at RT with human antibodies of present invention, titrated in a three-fold dilution series, followed by HRP conjugated anti-human IgG Fc γ (Jackson ImmunoResearch) in PBST containing 1% BSA. HRP activity was measured in a standard colorimetric assay. EC₅₀ values were calculated using a four-parameter logistic curve fit on Softmax pro software (Molecular Devices).
(§3) We measured the binding affinity of the human-derived TDP-43 specific antibodies provided herein to properly folded 6×His/SUMO tagged TDP-43 using a capture ELISA in which native TDP-43 was immobilized without direct adsorption on the surface of the ELISA plate. This was achieved by immobilizing an anti 6×His antibody which then captured native TDP-43. […] After this immobilization step, binding by human antibodies was tested in regular buffers without interference of TDP-43 aggregation.

[3] = target: T6, 6xHis-SUMO-TDP-43 (220-414) (human, UniProt Q13148 220-414); experiment: capture ELISA, antigen held by anti-6xHis antibody
T6 construct: Captured on the plate by an anti-6xHis antibody; also called 6xHis/SUMO tagged truncated TDP-43; not shown: N-terminal 6xHis and SUMO tags from a modified pET19-b vector
Method: as §2, §3

[4] = target: T1, His-huTDP-43 domain I (amino acid …); experiment: Western blot, 300 ng recombinant protein per lane, primary antibody 10 nM
Method: (§4) Non-specific binding sites were blocked for 1 hr. at room temperature with PBST containing 2% BSA (Sigma, Buchs, Switzerland). Blots were incubated overnight with primary antibodies (10 nM) followed by either a donkey anti-human IgGγ-specific secondary antibody conjugated with HRP (Jackson ImmunoResearch, USA) or a goat-anti mouse IgG (H+L)-specific secondary antibody conjugated with HRP (Jackson ImmunoResearch, USA). Blots were developed using ECL and ImageQuant 350 detection (GE Healthcare, Otelfingen, Switzerland).

[5] = target: T2, His-huTDP-43 domain II (amino acid …); experiment: as above
Method: as §4

[6] = target: T3, His-huTDP-43 domain III (amino acid …); experiment: as above
Method: as §4

[7] = target: T4, recombinant full-length His-tagged …; experiment: direct ELISA, coated antigen; remark: listed apart in the source
Method: as §1

[8] = target: T1, His-huTDP-43 domain I (amino acid …); experiment: direct ELISA, His-tagged TDP-43 fragments coated at 6.6 ug/ml, OD 450
Method: (§5) Non-specific binding sites were blocked for 1 hr. at room temperature with PBST containing 2% BSA (Sigma, Buchs, Switzerland). Antibodies were incubated 1 hr. at room temperature. Binding was determined using either a donkey anti-human IgGγ-specific antibody conjugated with HRP (Jackson ImmunoResearch, USA) or a goat-anti mouse IgG (H+L)-specific secondary antibody conjugated with HRP (Jackson ImmunoResearch, USA)., followed by measurement of HRP activity in a standard colorimetric assay.

[9] = target: T2, His-huTDP-43 domain II (amino acid …); experiment: as above
Method: as §5

[10] = target: T3, His-huTDP-43 domain III (amino acid …); experiment: as above
Method: as §5

T5 sequence (Q13148 whole entry): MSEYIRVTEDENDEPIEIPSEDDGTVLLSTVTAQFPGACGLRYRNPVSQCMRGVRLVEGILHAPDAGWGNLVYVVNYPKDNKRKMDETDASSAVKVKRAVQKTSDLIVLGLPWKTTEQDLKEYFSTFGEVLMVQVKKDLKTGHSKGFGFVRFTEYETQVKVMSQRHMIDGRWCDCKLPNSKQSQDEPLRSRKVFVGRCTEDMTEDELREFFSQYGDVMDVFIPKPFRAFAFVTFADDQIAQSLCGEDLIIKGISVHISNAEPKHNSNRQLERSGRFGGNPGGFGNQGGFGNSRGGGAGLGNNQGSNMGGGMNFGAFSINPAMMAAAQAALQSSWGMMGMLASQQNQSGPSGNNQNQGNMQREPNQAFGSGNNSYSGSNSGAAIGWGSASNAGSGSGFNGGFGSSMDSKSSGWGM
T6 sequence (Q13148 220-414): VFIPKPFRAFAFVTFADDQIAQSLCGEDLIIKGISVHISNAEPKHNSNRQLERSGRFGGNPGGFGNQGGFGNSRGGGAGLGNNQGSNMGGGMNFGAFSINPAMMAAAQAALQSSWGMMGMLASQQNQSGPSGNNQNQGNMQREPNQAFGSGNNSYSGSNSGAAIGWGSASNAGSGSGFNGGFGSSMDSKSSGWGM

Binder | EC50 [1] | EC50 [2] | EC50 [3] | binding result [1] | binding result [4] | binding result [5] | binding result [6] | EC50 [7] | binding result [8] | binding result [9] | binding result [10]
NI-205.36D5 (antibody, human IgG1, V domains shown, Human-derived) VH: QVQLVESGGGVVQPGRSLRLSCAASRFTFSSYGMHWVRQAPGKGLEWVALIYYDATQKYYADSVKGRFTISRDNSKNALYLQMTSLRADDTAVYYCARDLPYHYHRSASFAPADTWGQGTLVTVSS VL: EIVLTQSPGTLSLSPGERATLSCRASQTISNNYLAWYQQKPGQAPRLLVYAASSRATGIPDRFYGSGSGADFTLTISRLEPEDFVVYYCQQYGSSPITFGQGTRLEIK | > 72 nM | > 72 nM | > 60 nM | – | – | – | – | – | – | – | –
NI-205.8F8 (antibody, human IgG1, V domains shown, Human-derived) VH: EVQLLESGGGLVQPGGSLRLSCAASGYTFSYYAMSWVRQAPGKGLEWVSTIGDSGSTTHYADSVKGRFTISRDNSKSTLYLQMNSLRAEDTAVYYCAKGLGPVAAIGDYWGQGTLVTVSS VL: QSVLTQPPSASGTPGQRVTISCSGSSSNIGSNNVYWYQQLPGTAPKLLVYRNNQRPSGVPDRVSGSKSGSSASLAISGLRSEDEADYYCAAWDDSLRGYVFGTGTKVTVL | – | > 94 nM | – | no binding | – | – | – | – | – | – | –
NI-205.10D3 (antibody, human IgG1, V domains shown, Human-derived) VH: QVQLQESGPGLVKPSETLSLTCTVSGGSITDYYWSWIRQPPGKGLEWIGYIHDSGTTRYNPSLTSRLSMSLDTSTNQVSLRLTSVTAADTAVYYCAKVPDYWGQGTLVTVSS VL: not shown | 7.3 nM | > 90 nM | 20.5 nM | – | no binding (tested: 10 nM) | no binding (tested: 10 nM) | no binding (tested: 10 nM) | – | – | – | –
NI-205.25F3 (antibody, human IgG1, V domains shown, Human-derived) VH: QVQLVESGGGVVQPGRSLRLSCAASGFTFSNYVMYWVRQAPGKGLEWVAFISYDGSNKYYPDSVKGRFTISRDNSMNTLYLQMDSLRAEDTAVYYCARDTYQYDSSTYYPYFYYYGMDVWGQGTTVTVSS VL: QSALTQPASVSGSPGQSITISCIGTSSDVGGYNYVSWYQQHPGKAPKLMIYEVSNRPSGVSSRFSGSKSGNTASLTISGLQSEDEADYYCSSFASSSTSVTFGGGTKLTVL | 13.3 nM | > 120 nM | > 100 nM | – | – | – | – | 13.3 nM | no binding | no binding | no binding
NI-205.31D2 (antibody, human IgG1, V domains shown, Human-derived) VH: EVQLLESGGGSVQPGGSLRLSCAASGFTFSTYVMSWVRQAPGKGLEWVSAISRRGGSTYYADSVKGRFTISRDNSKNTLYLQMNSLRAEDTAVYYCAKDRWLTGRTGGVFDIWGQGTMVTVSS VL: not shown | > 41 nM | 41 nM | 19.4 nM | – | – | – | – | – | – | – | –
NI-205.14H5 (antibody, human IgG1, V domains shown, Human-derived) VH: EVQLLESGGGLVQPGGSLRLSCAASGFTFRNYAMAWVRQAPGKGLEWVSAIPARGDKTYYADSVRGRFTISRDISKSALYLQMNSLRVEDTAVYYCAKAHHLYNKNFDYWGQGTLVTVSS VL: EIVLTQSPGTLSLSPGETVTLSCRASQSVSSSNLAWYQQKPGQAPRLLIYGASSRATGIPDRFSGRGSGTDFTLTISRLEPEDFAVYYCQHYGTFGQGTKVDIK | > 100 nM | > 100 nM | – | – | – | – | – | – | – | – | –

These reach a lower EC50 [2]. Values come first.

EC50 [1] | EC50 [2] | EC50 [3] | binding result [1] | binding result [4] | binding result [5] | binding result [6] | EC50 [7] | binding result [8] | binding result [9] | binding result [10] | Binder
7.2 nM | 34 nM | 4.6 nM | – | – | – | no binding (tested: 10 nM) | 7.2 nM | no binding | – | – | NI-205.8A2 (antibody, human IgG1, V domains shown, Human-derived) VH: QVQLVESGGGVVQPGKSLRLSCAASGFTFRDHGMHWVRQAPGKGLEWVAVIWLDGSSRFYADSVEGRFTISRDNSKNTLYLQLTSLRAEDTAIYYCARDRVASEGTAFDVWGQGTMVTVSS VL: EIVLTQSPATLSLSPGERATLSCWASQNVNHYLVWYQQRPGQAPRLLLYDTSVRAAGIPARFIGSGSGTHFTLTISSLEPEDSAVYYCQHRSDWTFGQGTKVEIK
15.3 nM | 30.9 nM | 6.45 nM | – | no binding (tested: 10 nM) | no binding (tested: 10 nM) | no binding (tested: 10 nM) | – | – | – | – | NI-205.10H7 (antibody, human IgG1, V domains shown, Human-derived) VH: QVQLVESGGGVVQPGRSLRLSCAASGFTFSNYAMHWVRQAPGKGLEWVAVIWYDGSKKYYGDSVKGRFTISRDNPKNTLYLQMNSLRVEDTAIYYCVPDAFDMWGQGTMVTVSS VL: DIVMTQTPLSSPVTLGQPASISCRSSQSLVHTDGKTYLSWLHQRPGQPPRPLIYKMSKRFSGVPDRFSGSGAETEFTLKISRVEAEDVGIYYCLQLTQFPITFGQGTRLEIK
7.2 nM | 16.3 nM | 9.7 nM | – | no binding (tested: 10 nM) | no binding (tested: 10 nM) | no binding (tested: 10 nM) | 7.2 nM | – | – | – | NI-205.15F12 (antibody, human IgG1, V domains shown, Human-derived) VH: QVQLVQSGTAVKKPGASVKVSCKASGFSFNGYYMHWVRQAPGQGLEWMGVINPNGGSTNYAQKFKGRITMSADTPARSVSMELGSLRSDDTAMYYCARLPVNIEVLDLWGQGTLVTVSS VL: DIVMTQSPDSLAVSLGERATINCRSSQTVLFSSNDKNYLAWYQQKPGQPPKLLIYWASVRASGVPDRFSGSGSGTDFSLTINGLQAEDVAVYYCQQSSTAPLTFGGGTKVEIK
